Laboratory results from patent US20200140562A1 (Innovent, published 2020).
Values belong to the binder of their own block, whether it stands above or below them.

Tests used:
[1] = molecular target: T1, human OX40 on cells (CHO-hOX40, 293HEK-hOX40, Jurkat-hOX40, activated primary CD4+ T cells) (human, UniProt P43489 29-277); experiment: cell-based or functional assay
T1 sequence (looked up): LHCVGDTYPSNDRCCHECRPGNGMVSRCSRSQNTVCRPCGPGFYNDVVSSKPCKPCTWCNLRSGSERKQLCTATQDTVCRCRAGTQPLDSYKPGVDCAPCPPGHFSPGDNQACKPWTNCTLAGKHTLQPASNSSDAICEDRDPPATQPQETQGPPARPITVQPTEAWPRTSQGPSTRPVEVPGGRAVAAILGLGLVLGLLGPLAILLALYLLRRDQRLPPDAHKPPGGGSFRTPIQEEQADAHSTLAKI

[2] = molecular target: T1, human OX40 on cells (CHO-hOX40, …); experiment: flow cytometry, CHO-hOX40, 100 nM
[3] = molecular target: T1, human OX40 on cells (CHO-hOX40, …); experiment: flow cytometry, 293HEK-hOX40, 8 nM
[4] = molecular target: T1, human OX40 on cells (CHO-hOX40, …); experiment: flow cytometry, 293HEK-hOX40, 40 nM
[5] = molecular target: T1, human OX40 on cells (CHO-hOX40, …); experiment: flow cytometry, 293HEK-hOX40, 1.6 nM
[6] = molecular target: T1, human OX40 on cells (CHO-hOX40, …); experiment: flow cytometry, 293HEK-hOX40, 200 nM
[7] = molecular target: T2, human OX40_Fc (R&D Systems) (human, UniProt P43489 29-216); experiment: BLI, IgG1 on tip, hOX40-Fc 50 nM, avid
T2 construct: Bought

[8] = molecular target: T3, cyno OX40_Fc (Acro Biosystems) (cyno); experiment: BLI, IgG1 on tip, cyno OX40-Fc 100 nM, avid
T3 construct: Bought

[9] = molecular target: T4, mouse OX40Fc (Acro Biosystems) (mouse, UniProt P47741 20-211, limits assumed); experiment: BLI, IgG1 on tip, mouse OX40-Fc in solution
T4 construct: Bought; not shown: Fc
T4 sequence (looked up): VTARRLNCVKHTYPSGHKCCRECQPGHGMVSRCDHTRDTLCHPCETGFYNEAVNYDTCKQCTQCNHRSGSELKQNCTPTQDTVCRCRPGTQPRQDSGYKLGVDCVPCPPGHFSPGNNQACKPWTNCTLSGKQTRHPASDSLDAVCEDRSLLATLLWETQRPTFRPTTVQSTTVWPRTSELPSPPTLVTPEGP

[10] = molecular target: T1, human OX40 on cells (CHO-hOX40, …); experiment: flow cytometry, MFI on CHO-hOX40 over wild-type CHO
[11] = molecular target: T1, human OX40 on cells (CHO-hOX40, …); experiment: flow cytometry, activated CD4+ T cells, donor 1, 100 nM
[12] = molecular target: T1, human OX40 on cells (CHO-hOX40, …); experiment: flow cytometry, activated CD4+ T cells, donor 2, 100 nM
[13] = molecular target: T1, human OX40 on cells (CHO-hOX40, …); experiment: flow cytometry, CHO-hOX40, 100 nM blocker, competitor OX40L-hFc-fluorescein
[14] = molecular target: T1, human OX40 on cells (CHO-hOX40, …); experiment: cell-based or functional assay; remark: listed apart in the source
[15] = molecular target: T1, human OX40 on cells (CHO-hOX40, …); experiment: flow cytometry, CHO-hOX40, 25 nM
[16] = molecular target: T1, human OX40 on cells (CHO-hOX40, …); experiment: flow cytometry, CHO-hOX40, 50 nM
[17] = molecular target: T1, human OX40 on cells (CHO-hOX40, …); experiment: flow cytometry, CHO-hOX40, 100 nM; remark: listed apart in the source
[18] = molecular target: T1, human OX40 on cells (CHO-hOX40, …); experiment: flow cytometry, CHO-hOX40, 200 nM
[19] = molecular target: T1, human OX40 on cells (CHO-hOX40, …); experiment: flow cytometry, CHO-hOX40, 12.5 nM
[20] = molecular target: T1, human OX40 on cells (CHO-hOX40, …); experiment: flow cytometry, CHO-hOX40, 6.25 nM
[21] = molecular target: T1, human OX40 on cells (CHO-hOX40, …); experiment: flow cytometry, CHO-hOX40, 3.125 nM
[22] = molecular target: T1, human OX40 on cells (CHO-hOX40, …); experiment: flow cytometry, CHO-hOX40, 1.5625 nM
[23] = molecular target: T1, human OX40 on cells (CHO-hOX40, …); experiment: flow cytometry, CHO-hOX40, 0.78125 nM
[24] = molecular target: T1, human OX40 on cells (CHO-hOX40, …); experiment: flow cytometry, CHO-hOX40, 0.390625 nM
[25] = molecular target: T1, human OX40 on cells (CHO-hOX40, …); experiment: flow cytometry, CHO-hOX40, 0.1953125 nM
[26] = molecular target: T1, human OX40 on cells (CHO-hOX40, …); experiment: flow cytometry, CHO-hOX40, 0.09765625 nM
[27] = molecular target: T1, human OX40 on cells (CHO-hOX40, …); experiment: flow cytometry, CHO-hOX40, 0.024414063 nM
[28] = molecular target: T1, human OX40 on cells (CHO-hOX40, …); experiment: flow cytometry, CHO-hOX40, 0.048828125 nM
[29] = molecular target: T1, human OX40 on cells (CHO-hOX40, …); experiment: flow cytometry, CHO-hOX40, IgG2 made in 293HEK

B1: ADI-20113, IgG1 format (antibody, V domains shown)
VH: QVQLVESGGGVVQPGRSLRLSCAASGFTFSSYGMHWVRQAPGKGLEWVAVISYDGSNKYYADSVKGRFTISRDNSKNTLYLQMNSLRAEDTAVYYCARGRPWYSETGTSAFDIWGQGTMVTVSS
VL: EIVMTQSPATLSVSPGERATLSCRASQSVSSNLAWYQQKPGQAPRLLIYSASTRATGIPARFSGSGSGTEFTLTISSLQSEDFAVYYCQQHNVYPPYTFGGGTKVEIKR
notes: Made in yeast
- NFkB-Luc fold change in Jurkat stimulated by PHA+ anti-CD28 [1]: 3.79 fold over IgG4 control
- NFkB-Luc fold change in Jurkat stimulated by anti-CD3+ anti-CD28 [1]: 3.98 fold over IgG4 control
- CHO-OX40 binding intensity (MFI) [2]: 152000 MFI
- MFI [3]: 2e+06 MFI
- MFI [4]: 2.18e+06 MFI
- MFI [5]: 734000 MFI
- MFI [6]: 2.41e+06 MFI
- Kd [7]: 1.22 nM
- Kd [8]: 5.52 nM
- binding result [9]: no binding (tested: 100 nM)
- Fold difference [10]: 2460 fold
- MFI [11]: 84400 MFI
- MFI [12]: 115000 MFI
- MFI of OX40L signal on CHO-OX40 cells [13]: 24000 MFI

B4: ADI-20112, IgG2 format (antibody)
heavy: QVQLVESGGGVVQPGRSLRLSCAASGFTFSSYGMHWVRQAPGKGLEWVAVISYDGSNKYYADSVKGRFTISRDNSKNTLYLQMNSLRAEDTAVYYCARGRPWYSETGTSAFDIWGQGTMVTVSSASTKGPSVFPLAPCSRSTSESTAALGCLVKDYFPEPVTVSWNSGALTSGVHTFPAVLQSSGLYSLSSVVTVPSSNFGTQTYTCNVDHKPSNTKVDKTVERKCCVECPPCPAPPVAGPSVFLFPPKPKDTLMISRTPEVTCVVVDVSHEDPEVQFNWYVDGVEVHNAKTKPREEQFNSTFRVVSVLTVVHQDWLNGKEYKCKVSNKGLPAPIEKTISKTKGQPREPQVYTLPPSREEMTKNQVSLTCLVKGFYPSDIAVEWESNGQPENNYKTTPPMLDSDGSFFLYSKLTVDKSRWQQGNVFSCSVMHEALHNHYTQKSLSLSPG
light: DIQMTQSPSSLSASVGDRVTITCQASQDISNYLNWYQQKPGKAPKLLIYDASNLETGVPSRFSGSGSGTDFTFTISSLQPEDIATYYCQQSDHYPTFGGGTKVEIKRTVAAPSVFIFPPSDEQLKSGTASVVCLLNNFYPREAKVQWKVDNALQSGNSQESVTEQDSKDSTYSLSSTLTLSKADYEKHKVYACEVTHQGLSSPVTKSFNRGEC
notes: Made in 293HEK or CHO cells; also called ADI-20112-g2
- EC50, NFkB-luciferase reporter in Jurkat-hOX40 mixed with Raji cells [14]: 0.246 nM
- MFI [15]: 1.83e+06 MFI
- MFI [16]: 1.55e+06 MFI
- MFI [17]: 1.78e+06 MFI
- MFI [18]: 1.79e+06 MFI
- MFI [19]: 1.34e+06 MFI
- MFI [20]: 1.43e+06 MFI
- MFI [21]: 985000 MFI
- MFI [22]: 602000 MFI
- MFI [23]: 314000 MFI
- MFI [24]: 189000 MFI
- MFI [25]: 94200 MFI
- MFI [26]: 48500 MFI
- MFI [27]: 24600 MFI
- MFI [28]: 25700 MFI
- EC50 [29]: 2.78 nM

The remaining binders from weak to strong by Kd [7], led by results:

- NFkB-Luc fold change in Jurkat stimulated by PHA+ anti-CD28 [1]: 2.09 fold over IgG4 control
- NFkB-Luc fold change in Jurkat stimulated by anti-CD3+ anti-CD28 [1]: 1.96 fold over IgG4 control
- CHO-OX40 binding intensity (MFI) [2]: 161000 MFI
- MFI [3]: 2.82e+06 MFI
- MFI [4]: 2.39e+06 MFI
- MFI [5]: 626000 MFI
- MFI [6]: 2.55e+06 MFI
- Kd [7]: 0.91 nM
- Kd [8]: 14.3 nM
- binding result [9]: no binding (tested: 100 nM)
- Fold difference [10]: 2750 fold
- MFI [11]: 134000 MFI
- MFI [12]: 193000 MFI
- MFI of OX40L signal on CHO-OX40 cells [13]: 32800 MFI
B3: ADI-20066, IgG1 format (antibody, V domains shown)
VH: QLQLQESGPGLVKPSETLSLTCTVSGGSISSSSYYWGWIRQPPGKGLEWIGSIYYSGSTYYNPSLKSRVTISVDTSKNQFSLKLSSVTAADTAVYYCARDPGYSASPNWFDPWGQGTLVTVSS
VL: EIVLTQSPGTLSLSPGERATLSCRASQSVSSSFLAWYQQKPGQAPRLLIYGASSRATGIPDRFSGSGSGTDFTLTISRLEPEDFAVYYCQQYDVFPITFGGGTKVEIKR
notes: Made in yeast

- NFkB-Luc fold change in Jurkat stimulated by PHA+ anti-CD28 [1]: 2.11 fold over IgG4 control
- NFkB-Luc fold change in Jurkat stimulated by anti-CD3+ anti-CD28 [1]: 1.19 fold over IgG4 control
- CHO-OX40 binding intensity (MFI) [2]: 157000 MFI
- MFI [3]: 2.46e+06 MFI
- MFI [4]: 2.42e+06 MFI
- MFI [5]: 808000 MFI
- MFI [6]: 3.03e+06 MFI
- Kd [7]: 0.352 nM
- Kd [8]: 5.77 nM
- binding result [9]: no binding (tested: 100 nM)
- Fold difference [10]: 2240 fold
- MFI [11]: 153000 MFI
- MFI [12]: 209000 MFI
- MFI of OX40L signal on CHO-OX40 cells [13]: 33700 MFI
B2: ADI-20065, IgG1 format (antibody, V domains shown)
VH: B3 VH
VL: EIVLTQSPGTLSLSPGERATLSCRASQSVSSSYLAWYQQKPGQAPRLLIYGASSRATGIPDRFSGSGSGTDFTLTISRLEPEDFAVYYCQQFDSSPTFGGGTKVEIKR
notes: Made in yeast
